Laboratory results published in patent US6767890.

Target: Galanin receptor of rat ileum (rat)
Experiment: cell-based or functional assay

Agonism (contraction of rat ileum), galanin 0.1 µM: 100%
Agonism, average of two preparations, galanin 0.1 µM: 100%
Substance: Galanin (peptide)
